Assay results as given in publication PMC12136450 (PLOS Biology, 2025).

T1: His-tagged Cpe1tox^C362A (catalytically inactive toxin domain) (Escherichia coli strain ATCC 11775, UniProt P0DXX9 338-479, C362A)
T1 construct: not shown: His6, N-terminal, kept
T1 sequence: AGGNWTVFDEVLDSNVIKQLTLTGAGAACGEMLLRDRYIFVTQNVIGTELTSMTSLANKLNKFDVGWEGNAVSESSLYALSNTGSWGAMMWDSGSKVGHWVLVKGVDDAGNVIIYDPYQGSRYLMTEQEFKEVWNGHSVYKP

T2: His-tagged Cpe1tox^C362A (catalytically inactive toxin domain) (Escherichia coli strain ATCC 11775, UniProt P0DXX9 338-479, C362A)
T2 sequence: T1 sequence

B1: His-tagged Cpe1tox^C362A (catalytically inactive toxin domain) (domain or fragment)
chain: T1 sequence
B2: strep-tagged Cpi1 (wild type) (natural protein)
chain: MGIVFTNHNIDLLSVEFDEITKNCNYTFSVDGETAIFTARISIIRNIKGIKYSEELDKFIMSIMPLQPKVSKILGGVTWDCICGKEVGFPVRLIGK
notes: source: E. coli BL21 (DE3), pETDuet-1, purified (streptavidin resin, gel filtration)
B3: ATPase domain of ParE, strep-tagged (domain or fragment)
chain: MTQTYNADAIEVLTGLEPVRRRPGMYTDTTRPNHLGQEVIDNSVDEALAGHAKRVDVILHADQSLEVIDDGRGMPVDIHPEEGVPAVELILCRLHAGGKFSNKNYQFSGGLHGVGISVVNALSKRVEVNVRRDGQVYNIAFENGEKVQDLQVVGTCGKRNTGTSVHFWPDETFFDSPRFSVSRLTHVLKAKAVLCPGVEITFKDEINNTEQRWCYQDGLNDYLAEAVNGLPTLPEKPFIGNFAGDTEAVDWALLWLPEGGELLTESYVNLIPTMQGGTHVNGLRQGLLDAMREFCEYRNILPRGVKLSAEDIWDRCAYVLSVKMQDPQFAGQTKERLSSRQCAAFVSGVVKDAFILWLNQNVQAAELLAEMAISSAQRRMRAAKKVVRKK
modifications: C-terminal strep tag left out. Limits are not given; 1-390 is taken from the 43-kDa ATPase domain in PDB 1S16 (390 aa), which the paper uses for ParE. The K-12 strain is inferred.

Tests used:
[1] = target: ATPase domain of ParE, strep-tagged (E. coli); test: BLI; […]; 30 °C; PBS with 0.2% BSA, 0.02% Tween-20; association and dissociation 120 s; […]
[2] = target: T1, His-tagged Cpe1tox^C362A (catalytically …); test: BLI; […]; 30 °C; PBS with 0.2% BSA, 0.02% Tween-20; association 150 s, dissociation 300 s; 1:1 global fit; conditions: both partners purified
[3] = target: T2, His-tagged Cpe1tox^C362A (catalytically …); test: BLI

Row | Binder | Kd [1] [nM] | Kd [2] [nM] | koff [3] [s⁻¹]
1 | B1 | 343 | – | –
2 | B2 | – | 8.58 | 0.00303
3 | B3 | – | – | 0.47
